Assay results reported in the DeepSol protein solubility set.

Experiment: soluble on expression in E. coli; label from the status in PepcDB or PDB records

Sequence | soluble on expression in E. coli
MGSDKIHHHHHHLFLNSLKLKDFRNYKSLQVDFSNSINVLIGDNAQGKTNLLEAIYILSMARSHRDNNDRDLINWSSDFSDITGEVQSKMGKFPLEVRITRTGKKVFVNHLTENRLSDYIGNLHTVLFAPEDLDLVKGSPGVRRKFIDSEFGQMSANYLFNLLQYRSVLKNRNAYLKNIKWIGNNPKIDEDYLKVLNDQLIDFGSEIIFQRFVLVKELEKYSYQIHKAISRNEKLTIKYASFSGIDDQSTKEEISKIFNNQLLKNKTRELFLKSTSVGPHHDDLKFSINGKEVGSFASQGQQRTTALSVRLAEIEMMKYETGEYPILLLDDVLSELDGDRQTQLLNFIQDKVQTFLTTTSLSDVERDLIKDPKIYQVKGGTLVNG | not soluble
MRVTDFSFELPESLIAHYPQPERSRCRLLSLEGPTGALTHGTFTDLLDKLNPGDLLVFNNTRVIPARLFGRKASGGKIEVLVERMLDDKRILAHIRASKAPKPGTELLLGDDESIHATMTARHGALFEVEFNDPRPVLDILNAIGHMPLPPYIDRPDEDADRELYQTVYSEKPGAVAAPTAGLHFDEPLLAALREKGVEMAFVTLHVGAGTFQPVRVDTIEDHIMHSEYAEVPQEVVDAVLAAKARGNRVIAVGTTSVRSLESAAQAAKSDLIEPFFGDTQIFIYPGYQYKVIDALITNFHLPESTLIMLVSAFAGYQHTMNAYKTAVEQKYRFFSYGDAMFITYNPQAISERP | not soluble
MGSDKIHHHHHHMNSRTSFVSPDDRFSMVYFKMEHEGCWTGITKEHNIAIHTLKIIPLKDRNNIYGLFEIRAQGKKEFRDFLRRINREKTIHRVMAYSPSELRKNVYFIDLYEVYGGMIEGILNDYQSIFEYDVVRRGVEEKYAIIPSDRVLELKNSINGLGKIYQFKARCIKNFYYAFSPFLSYTPSEMQIIAEAVSRGYYSIPRHVGIRDLAEYFGMSKSTVQEYLRKAEQKTMNNLKLLKLMNEMKE | not soluble
MVMEDNESCASRVIFDALPTSQATMDRRERIKMEVFDEVLRRLRQSDIEDAHLPGFEDDLWNHFNRLPARYALDVNVERAEDVLMHKRLLHSAYDPQNRPAIEVHLVQVQPAGISADLDSTSNDAGHSSPTRKSIHPPPAFGSSPNLEALALAASLSQDEDADNSVHNNSLYSRPLHEITFSTEDKPKLLFQLTALLAELGLNIQEAHAFSTTDGYSLDVFVVDGWPYEETERLRISLEKEAAKIELQRPDFSEIIEQLQEIAKEVGEEGEEKKKSSTGLGGGIFAALRRSTTHH | soluble
MGSDKIHHHHHHMKTLQTHRVLQALIGHFTPFLESGITELMINTEQELWLYKVNNTREKRGHALFDKAFLLRFCEQLASFRGLFFDEEHPTLNCSIPFTRYRVSANHFSITTNNQITLNIRVPRLKPLSLEDFTFKASDPKSLKDLALKGHNILISGETSSGKTSLLNALLDCVNKDERVVSVEDSQELDLKAFSNCVGLLVGKQENTRFNYEDALNMAMRLNPDRLIVGEIDTRNAALFLRLGNTGHKGMLSTIHANSAQNTLEALSLNLSMRYMYSLDKDLMRAYFKSAIDVIVHVNRINNERQIAEVLWTKEL | not soluble
MAEKRKLLAEIDKCFKKIDEGVELFEETMEKMHEANSDNQRDKYQDDLKKEIKKLQRLRDQVKNWQNASEIKDKDKLNSYRKLIEQRMEQFKDVERENKTKPHSKLGLSAEEKLDPKEKEKAETMDWIQHQIRSLNEEVDRTEMQLESLSNTDTGKGKRGKKEDAKTKNEREKRVEGLKHHLERINFHIEKLEICMRMISNESLNAKMVLETLKEPIETYVEMMNEEDSEEADNYDPDDAYDELNLEKLCQQIGGVNVASVDDEHRENGHELGIDTAESGAVSGSRHTSGENGQPPSPAGRRIVPLSMPSPHAVTPELKRLASKDSNVDRPRTPPVTPASAAPPPPGIPYNSVAAGRSTTTPVPSTPISANSPAPSLAQAAPIAAASPVFPPAAAAASKPVLAQSVSEMPQKKESITSTTSRGSAAAPATTTTTTTTTTSSEPAEVPLVVQQTVSETFVNGVDSPAAATRLTQQERQQQLQQQHHHQSTIIPTTPTTTTTSSSMLGGMMSTDDPAAALQAALNMAAASQQAVATGPKRAHIPAWLGASPLGRTSMTQEFDGQLAALELACAKATFPLDSEKPRNYLSKVSFPVPSWYGQTAPNTSDSLEYYLRLAPDTLFFIFYYMEGTRAQLLAAKALKKLSWRFHTKYLTWFQRHEEPKQITDDYEQGTYVYFDFEKWSQRKKESFTFEYKFLEDKEFD | not soluble
MGSDKIHHHHHHMVAYGELIREVRLSKGLTQKEVYTGVISKSYAIGFEKGKHDITLVLFEEILERVMLSSDEFFFMNRGYSLAEEDNFWYKFANAANQKSLADLQELYQEVLQQTGDRANLRKAIVHSRMEINEQFLLNNRFDVSIVSEKDKAVIQTYLWKVQSWTLEEIRIFANSVDYFEEDVQIYFFQLVLKSLEKYKHYDRGKKVFSTLLSNIIEELITRNQLEYAAQLLEILHELSSTHDCAFYRIMHNYYQGLIWMKNDQVEQGLKESKSAIRILDVLDYKSLAQLYNTLLQQFLEKENIQIV | not soluble
MKHKTKILHLKNGYDLWGASFGDPNSPIKILALHGGPGDDADEFIVWADQLKKFARIDAEVFVYEQLGSFHSESPDFSKKENVDNYLNYNYYINEVEEVRQLFDLDNFYLAGHSWGGILAYEYMLRSEYRQHLKAGIVFSMNDNIDDYVKQINKELLDMFGEQEFKYMKRIETSGDFSQKHYHQNLIELYKEHLNRDPNYNPDDGMKMMAEDVYHHFQGNNEFVVTGEMKNWNVSSRLPEFDIPVLETVGEFDTMSVESAKRSARKLPRGRFALTENGGHSHAQDHPKEFFEHLGSFIKDVKAGNV | not soluble
MGSDKIHHHHHHCEDIFNDLAVNPNQSDVNSFYTTLENCNKGILGIYGYISTPRNLGACGFGLMLTRSDEGCSVADYGVPGAYNEEFTPSYYSLVQPFQLMYTAASQANQMIESLTEIEFSNKELQDAYLGEAYFLRAFTHFFLFINYRNIPLIKELPKAPNEYKPQATPEEAWDFIIDDLIKAKDLLPDKNFWDAKNKGRVTKASAYALLGKSYLYRSGIEPKYGTSQTTYYNEAAAAFAEIINGNCGNYRLVDDYSWNFDVAHENNDESIFEVQFVGVLNTGFNPGFVDSGLFNDVRCKMCIMNRSRNSNSSAQVMHNWLYDKFVASKTVTGETDPRMFGSFVFNDNVSEIIRPKGMKVTFLEGKDWEAEMGSKEGTFGEQYELAMGYKMCSRKWLDWTLPPTDDAGGHFFNGRAQGVNWRMIRYSDVLLMYAEAVVMGGKATANITPLEAINKVRDRVGVPHVTEANMRTIEDERILELTYEGFRFFDLLRWGKVVERFRELENTDPLFKRFSRAQYMGFKENKNEWVPLPIDEVEGNPYITKNNPGW | not soluble
MGSDKIHHHHHHMSNHSSSIPELSDNGIRYYQTYNESLSLWPVRCKSFYISTRFGQTHVIASGPEDAPPLVLLHGALFSSTMWYPNIADWSSKYRTYAVDIIGDKNKSIPENVSGTRTDYANWLLDVFDNLGIEKSHMIGLSLGGLHTMNFLLRMPERVKSAAILSPAETFLPFHHDFYKYALGLTASNGVETFLNWMMNDQNVLHPIFVKQFKAGVMWQDGSRNPNPNADGFPYVFTDEELRSARVPILLLLGEHEVIYDPHSALHRASSFVPDIEAEVIKNAGHVLSMEQPTYVNERVMRFFNA | soluble
MFNNNDFKDYRKLLGFGSQNAFKEFLGAKDIQPCVDFNDLNALKKRLIEIFSAINSIYCFKYNEYELECFFKNSIERVFSKIVDTHIIYKLNNQGRRPEEVCFSWMRGFLVAEFFKDFIACLFSAQKETIKFFGGDNFENIESFKRSPKADFLLDNHLLLEVQSDFQGINDIKEHKVLEAKRRLITDKVPTIVVHFDLFNGQVACVEISKIKDNDLNWITRQQMEGQSVFNISQNFFDYKITEIPNKPLS | not soluble
MWSEYSLEVVDAVARNGSFSAAAQELHRVPSAVSYTVRQLEEWLAVPLFERRHRDVELTPAGVWFLQEGRSVIKKMQITRQQCQQIANGWRGQLSIAVDDIVKPARMRQMIVDFYRHFPDVELIVFQEVFNGVWDALADGRVELAIGATRSIPVGGRYAFRDMGMLSWDCVVASDHPLAKMEGPLSDDVLRNWPSLVREDTSRSLPKRTTWLLDNQKRVVVPDWESSATCLSAGLCVGMVPSHFARPWIDRGEWTALALENPFPDAACCLTWQQNDASPALNWMLDYLGDSDTLNREWLRAPERSAPARCLNDDNRQTGHPLPSGAQPDGGALR | not soluble
MAHHHHHHMLEGPNAEEAKKAILECDGIFVPGGFGKRGVDGKCAAVALARHHNIPYFGVCLGMQVALIQVCREELGWKDANSEEFDPSSTHQIVRIMDCDRHSMGANMHLGARNVHLVEKNSIMSTIYSGADFVVERHRHRYEVNTTYLGQLRGAGVLISGVSDPTFGPHTRVEAIEIPSLRFFLAVQFHPEFVSSPMDPSPPYLAFMAAASKKEYKWPESCAARRVKTL | not soluble
MRTSDSHLPLSNLARSDSIEFKDAVINEKWVHSANRRKGHLTPKAPEKKSGWFGGQKSEEELLMERVEQHELEELQTFIAQKLFRVDGIICDEETRILLVEKLMNAKEYPTINHDELAHRYGSSMAGWLRDRLVPSMSDCSSVLQRAAAEFYQNKMSDPLCNWGQLNPEHVSMVAARIAKFSEEMSSKVKWSLLVEPGKFSCHLTEFVQEFNRLDRMFVSNELSDEESLQTAFNANYLTKARSKMVPCAEFSRVKLNDGLGRLDDRNELRNGMFSDEHEFLQEEGYTAKSTYGTTDFIHANYVKGGPLLNTFICAQAPLKNTQEDFWRMVFQEKCQFIVMLNSAVDSSTLGPLDSANRNHCPYYWPRAENESLRFGSFHITCMKVDSKADPLFTITKLKVQKVGGNLLDAEFDEELFLEHWQWDWQYLGDVHWPFRVLRKARQLSTPTIVQCIDGCSKSGTLVSIETALMHFIRGSPITKSLILQSCVFVRLQRRLSVSSVLLYLFIYRVILRWIEPYVNKWYHRAALGLRFKSIGFIQKYNAMIQEFSRITPAY | not soluble
MSLGNNYAAKVNDQEISRGQFENAFNSERNRMQQQLGDQYSELAANEGYMKTLRQQVLNRLIDEALLDQYARELKLGISDEQVKQAIFATPAFQVDGKFDNSRYNGILNQMGMTADQYAQALRNQLTTQQLINGVAGTDFMLKGETDELAALVAQQRVVREATIDVNALAAKQPVTEQEIASYYEQNKNNFMTPEQFRVSYIKLVAATMQQPVSDADIQSYYDQHQDQFTQPQRTRYSIIQTKTEDEAKAVLDELNKGGDFAALAKEKSADIISARNGGDMGWLEDATIPDELKNAGLKEKGQLSGVIKSSVGFLIVRLDDIQPAKVKSLDEVRDDIAAKVKHEKALDAYYALQQKVSDAASNDTESLAGAEQAAGVKATQTGWFSKDNLPEELNFKPVADAIFNGGLVGENGASGINSDIITVDGDRAFVLRVSEHKPEAVKPLADVQEQVKALVQHNKAEQQAKVDAEKLLVDLKAGKGAEAMQAAGLKFGEPKTLSRSGRDPISQAAFALPLPAKDKPSYGMATDMQGNVVLLALDEVKQGSMPEDQKKAMVQGITQNNAQIVFEALMSNLRKEAKIKIGDALEQQEGHHHHHH | soluble
MAHHHHHHMGFSLLHPLPSAIHAGSNSSRLAVQRNPCRRSTEWCHGGSSGKQKKQRHCRGSEAGRPSGLPPNPRAPPPHHHRSAEGPRRPARHRRRHRRCTEDRPSSKPPAAHPRCRWARSPRRLSEHLGRLPLLGRRILLGCSQVDILRWGAAAGINALRNGDGCPLAILVQ | not soluble
MRTSFFAAAALLAVSAFAQAHEYNAGQLHIEHPWALALPPTSPNGAAYFVVQNHGKENDTLLGADTPRAASAEVHEHVHKNGMMSMQKVDSVDVAPGKDLRFAPGGYHLMLMGLKQPLVAGERFPLTLHFRKAGDVPVEIVVESKAPAEQGGHEQHGH | soluble
